The target of assay [1] is protease activated receptor 2 (PAR2) (human (endogenous in Caco-2)) (UniProt P55085).
Assay [2] has the same target. This is another data set of the same source.
For assay [3] the target is unchanged. The source holds these as a separate data set.
Assay [4] has the same target. This is another data set of the same source.
The target is the same in assay [5]. The source holds these as a separate data set.

Sequence of UniProt P55085 (P55085 37-397): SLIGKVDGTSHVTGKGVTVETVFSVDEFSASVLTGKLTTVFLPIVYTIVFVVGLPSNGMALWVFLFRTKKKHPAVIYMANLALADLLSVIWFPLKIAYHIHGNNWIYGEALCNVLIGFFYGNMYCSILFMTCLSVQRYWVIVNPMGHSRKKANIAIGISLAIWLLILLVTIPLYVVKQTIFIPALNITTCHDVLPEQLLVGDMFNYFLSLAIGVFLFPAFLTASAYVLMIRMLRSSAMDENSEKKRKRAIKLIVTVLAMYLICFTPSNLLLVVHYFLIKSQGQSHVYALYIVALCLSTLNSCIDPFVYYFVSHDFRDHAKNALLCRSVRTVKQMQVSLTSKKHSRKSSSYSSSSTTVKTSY

Take “Recombinant Trichinella spiralis trypsin, C-terminal domain (rTsTryp) (from UniProt E5RYV9 1-667)”: in assay [1], the ZO-1 mRNA (qPCR) in Caco-2 cells treated with rTsTryp, against the DMSO group; restored by AZ3451 pretreatment stood at 55.9 % decrease and the occludin mRNA (qPCR) in Caco-2 cells treated with rTsTryp, against the DMSO group; restored by AZ3451 pretreatment is 52.4 % decrease. Besides, in assay [2], the ZO-1 protein (Western blot) in the Caco-2 monolayer treated with rTsTryp, against the DMSO group; abrogated by AZ3451 pretreatment stood at 56.5 % decrease and the occludin protein (Western blot) in the Caco-2 monolayer treated with rTsTryp, against the DMSO group; abrogated by AZ3451 pretreatment turned out to be 49 % decrease. Further, in assay [3], the flux of 4 kDa FITC-dextran (FD4) through the Caco-2 monolayer, rTsTryp group against the PBS group (fold of the PBS group) was 2. Further, in assay [4], the level of phosphorylated ERK1/2 (Western blot) in the Caco-2 monolayer after 2 h with rTsTryp, against the PBS group was found to be 210 % increase. The substance also gave a promotion of IIL larval invasion of the Caco-2 monolayer by 12, 16 and 20 μg/ml rTsTryp, against the PBS group in assay [5] of 40.2 % promotion.

(Values after PMC10786404.)
